Values of other authors in PMC5515885.

Biological target: Nup153 (Homo sapiens) (UniProt P49790)
UniProt P49790, sequence (P49790 2-1475): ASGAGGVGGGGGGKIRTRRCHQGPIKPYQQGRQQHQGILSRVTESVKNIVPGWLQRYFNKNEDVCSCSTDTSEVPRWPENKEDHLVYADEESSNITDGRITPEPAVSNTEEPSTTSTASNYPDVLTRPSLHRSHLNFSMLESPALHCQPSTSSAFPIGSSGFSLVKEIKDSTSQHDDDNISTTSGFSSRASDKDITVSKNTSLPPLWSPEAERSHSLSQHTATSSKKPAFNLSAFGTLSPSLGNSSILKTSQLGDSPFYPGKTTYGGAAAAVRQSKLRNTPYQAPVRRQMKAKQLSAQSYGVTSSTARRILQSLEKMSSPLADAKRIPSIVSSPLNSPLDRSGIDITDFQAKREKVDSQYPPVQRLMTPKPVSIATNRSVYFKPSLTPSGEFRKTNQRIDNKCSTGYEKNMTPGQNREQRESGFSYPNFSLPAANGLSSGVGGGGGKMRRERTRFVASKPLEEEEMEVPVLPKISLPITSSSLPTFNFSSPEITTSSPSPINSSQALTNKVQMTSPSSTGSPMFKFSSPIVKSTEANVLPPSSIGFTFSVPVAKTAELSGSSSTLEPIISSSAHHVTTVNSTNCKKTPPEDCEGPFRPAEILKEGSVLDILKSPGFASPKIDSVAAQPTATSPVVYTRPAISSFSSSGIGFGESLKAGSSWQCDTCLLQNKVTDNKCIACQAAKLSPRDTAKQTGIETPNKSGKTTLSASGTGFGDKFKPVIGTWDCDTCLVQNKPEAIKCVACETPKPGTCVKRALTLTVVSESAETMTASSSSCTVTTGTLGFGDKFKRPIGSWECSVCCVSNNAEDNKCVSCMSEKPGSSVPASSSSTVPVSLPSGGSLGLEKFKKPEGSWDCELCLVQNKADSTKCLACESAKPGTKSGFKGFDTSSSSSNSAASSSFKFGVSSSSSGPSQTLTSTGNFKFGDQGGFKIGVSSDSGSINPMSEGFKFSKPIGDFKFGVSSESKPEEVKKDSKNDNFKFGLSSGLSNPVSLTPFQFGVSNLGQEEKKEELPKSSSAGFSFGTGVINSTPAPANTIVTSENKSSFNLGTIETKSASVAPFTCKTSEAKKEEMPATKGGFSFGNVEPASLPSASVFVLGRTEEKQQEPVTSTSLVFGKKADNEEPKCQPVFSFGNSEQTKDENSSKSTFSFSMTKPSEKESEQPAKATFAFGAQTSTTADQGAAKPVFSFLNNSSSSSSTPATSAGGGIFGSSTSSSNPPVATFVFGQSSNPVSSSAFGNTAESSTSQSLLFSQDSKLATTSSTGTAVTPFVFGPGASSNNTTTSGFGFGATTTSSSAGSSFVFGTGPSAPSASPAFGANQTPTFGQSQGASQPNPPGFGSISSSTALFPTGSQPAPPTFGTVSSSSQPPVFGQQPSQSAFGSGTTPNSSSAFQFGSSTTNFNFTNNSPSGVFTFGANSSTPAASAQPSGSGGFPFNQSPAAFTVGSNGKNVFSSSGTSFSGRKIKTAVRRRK

For importin beta (from UniProt Q14974), the Kd is given as 9 nM.
